Assay [1] deals with T1, HIV-1 Peptide 1904 (HIV-1).
T1 construct: also called HIV peptide 1904
Kind of assay: MATRIX screen of GST-PDZ array, modified G assay ELISA; 'Intensity of Hit'. In general terms: ELISA stands for enzyme-linked immunosorbent assay.
Protocol: (§1) The primary MATRIX screen against all PDZ proteins in the library was performed under pre-incubation conditions, which are a modification of the G assay. A pre-incubation assay incubates the peptide with the HRP-streptavidin before addition of the mixture to the PDZ-coated plate. The subsequent titrations of the peptide against the PDZs of interest were performed under normal ELISA G assay conditions. In normal conditions the peptide is incubated on the PDZ coated plate before the later addition of the HRP-streptavidin.
(§2) Prepare peptides in half of volume need with double of desired concentration. […] Dilute HRP (1:1000) in another half of volume (same volume with peptide) then mix with peptides. […] Incubate the peptide-HRP mixtures for 20 minutes at RT 8. Wash plate 3× with cold PBS* 9. Add peptide-HRP mixtures at 50 μl per well (write time on plate) 10. […] Turn on plate reader and prepare files 12. Promptly wash plate 5× with room temperature PBS 13. Add 100 μl/well TMB substrate (write time on plate) 14. Incubate in dark at room temp for a maximum of 30 minutes 15. Stop reaction with 100 μl of 0.18M H₂SO₄, 30 min. after adding TMB 16. Take last reading at 450 nm soon after stopping reaction

The target of assay [2] is T2, HIV-1 Peptide 1905 (HIV-1).
T2 construct: also called HIV peptide 1905
Kind of assay: modified G assay ELISA, third experiment (text prints 'FIG. 3C' a second time, read as FIG. 5C).

Assay [3] concerns the target T1, HIV-1 Peptide 1904. Kind of assay: G assay ELISA (FIG. 1C): GST-PDZ on anti-GST plate, biotinylated peptide titrated, streptavidin-HRP.
Assay [4] concerns the target T2, HIV-1 Peptide 1905. Kind of assay: G assay ELISA (FIG. 4C): GST-PDZ on anti-GST plate, biotinylated peptide titrated, streptavidin-HRP.
Assay [5] addresses T1, HIV-1 Peptide 1904. Kind of assay: modified G assay ELISA (FIG. 2C): peptide pre-incubated with streptavidin-HRP, titrated on GST-PDZ plate.
Assay [6] addresses T2, HIV-1 Peptide 1905. Kind of assay: modified G assay ELISA (FIG. 3C): peptide pre-incubated with streptavidin-HRP, titrated on GST-PDZ plate.
Assay [7] concerns the target T2, HIV-1 Peptide 1905. Kind of assay: MATRIX screen of GST-PDZ array, modified G assay ELISA; 'Intensity of Hit'.
Protocol: as §1, §2

B1: KIAA0316, GST fusion (other)
chain: IPPAPRKVEMRRDPVLGFGFVAGSEKPVVVRSVTPGGPSEGKLIPGDQIVMINDEPVSAAPRERVIDLVRSCKESILLTVIQPYPSPKSEFIVTD
With B1, in assay [1], the binding result is recorded as “binds”.

B2: KIAA0751 RIM2, GST fusion (other)
chain: TLNEEHSHSDKHPVTWQPSKDGDRLIGRILLNKRLKDGSVPRDSGAMLGLKVVGGKMTESGRLCAFITKVKKGSLADTVGHLRPGDEVLEWNGRLLQGATFEEVYNIILESKPEPQVELVVSRPIG
In general, EC50 refers to the concentration at which the effect is half-maximal. A higher EC50 goes with a need for much substance. B2: the 50% effective concentration (EC50) stood at 68 nM in assay [2]; 410 nM in assay [3]; 182 nM in assay [4]; 30 nM in assay [5]; 14 nM in assay [6].

B3: EZRIN Binding Protein 50 PDZ #1, GST fusion (other)
chain: LCCLEKGPNGYGFHLHGEKGKLGQYIRLVEPGSPAEKAGLLAGDRLVEVNGENVEKETHQQVVSRIRAALNAVRLLVVDPE
notes: also called EBP50 d1; EBP50 (PDZ #1)
In the case of B3, the binding result in assay [7] is recorded as “binds”.

B4: MAGI1 d1, GST fusion (other)
chain: PSELKGKFIHTKLRKSSRGFGFTVVGGDEPDEFLQIKSLVLDGPAALDGKMETGDVIVSVNDTCVLGHTHAQVVKIFQSIPIGASVDLELCRGYPLPFDPDGIHRD
notes: also called MAGI1 (PDZ #1)
As for B4, the binding result in assay [1] was “binds”.

B5: KIAA0807 MAST2, GST fusion (other)
chain: ISALGSMRPPIIIHRAGKKYGFTLRAIRVYMGDSDVYTVHHMVWHVEDGGPASEAGLRQGDLITHVNGEPVHGLVHTEVVELILKSGNKVAISTTPLENSS
B5: the binding result in assay [1] and in assay [7] was “binds” each time.

B6: PICK1 F.L., GST fusion (other)
chain: MFADLDYDIEEDKLGIPTVPGKVTLQKDAQNLIGISIGGGAQYCPCLYIVQVFDNTPAALDGTVAAGDEITGVNGRSIKGKTKVEVAKMIQEVKGEVTIHYNKLQADPKQGMSLDIVLKKVKHRLVENMSSGTADALGLSRAILCNDGLVKRLEELERTAELYKGMTEHTKNLLRAFYELSQTHRAFGDVFSVIGVREPQPAASEAFVKFADAHRSIEKFGIRLLKTIKPMLTDLNTYLNKAIPDTRLTIKKYLDVKFEYLSYCLKVKEMDDEEYSCIALGEPLYRVSTGNYEYRLILRCRQEARARFSQMRKDVLEKMELLDQKHVQDIVFQLQRLVSTMSKYYNDCYAVLRDADVFPIEVDLAHTTLAYGLNQEEFTDGEEEEEEEDTAAGEPSRDTRGAAGPLDKGGSWCDS
Turning to B6, in assay [7], the binding result is listed as “binds”.

B7: AIPC d1, GST fusion (other)
chain: LIRPSVISIIGLYKEKGKGLGFSIAGGRDCIRGQMGIFVKTIFPNGSAAEDGRLKEGDEILDVNGIPIKGLTFQEAIHTFKQIRSGLFVLTVRTKLVSPSLTNSS
notes: also called AIPC (PDZ #1)
B7: the binding result in assay [1] was “binds”.

B8: INADL d3, GST fusion (other)
chain: NVELVRKDGQSLGIRIVGYVGTSHTGEASGIYVKSIIPGSAAYHNGHIQVNDKIVAVDGVNIQGFANHDVVEVLRNAGQVVHLTLVRRK
notes: also called INADL (PDZ #3)
Regarding B8, in assay [1], the binding result is on record as “binds”.

B9: KIAA1284, GST fusion (other)
chain: KDVNVYVNPKKLTVIKAKEQLKLLEVLVGIIHQTKWSWRRTGKQGDGERLVVHGLLPGGSAMKSGQVLIGDVLVAVNDVDVTTENIERVLSCIPGPMQVKLTFENAYDVKRET
As for B9, the binding result in assay [1] and in assay [7] was “binds” throughout.

The record behind these values is patent US20070014803A1 (ARBOR VITA, published 2007).
